{"source": "patent US20090068224A1", "about": "“METHOD TO IDENTIFY POLYPEPTIDE TOLL-LIKE RECEPTOR (TLR) LIGANDS” (VAXINNATE CORPORATION, priority 2005, published 2009)", "molecules": {"B1": {"name": "T7 phage displaying the E. coli flagellin (fliC) protein (ligand)", "chain": "MAQVINTNSLSLITQNNINKNQSALSSSIERLSSGLRINSAKDDAAGQAIANRFTSNIKGLTQAARNANDGISVAQTTEGALSEINNNLQRVRELTVQATTGTNSESDLSSIQDEIKSRLDEIDRVSGQTQFNGVNVLAKNGSMKIQVGANDNQTITIDLKQIDAKTLGLDGFSVKNNDTVTTSAPVTAFGATTTNNIKLTGITLSTEAATDTGGTNPASIEGVYTDNGNDYYAKITGGDNDGKYYAVTVANDGTVTMATGATANATVTDANTTKATTITSGGTPVQIDNTAGSATANLGAVSLVKLQDSKGNDTDTYALKDTNGNLYAADVNETTGAVSVKTITYTDSSGAASSPTAVKLGGDDGKTEVVDIDGKTYDSADLNGGNLQTGLTAGGEALTAVANGKTTDPLKALDDAIASVDKFRSSLGAVQNRLDSAVTNLNNTTTNLSEAQSRIQDADYATEVSNMSKAQIIQQAGNSVLAKANQVPQQVLSLLQG", "notes": "also called fliC phage; recombinant fliC-phage"}}, "key": {"[1]": {"target": "T1, TLR2 (Homo sapiens, UniProt O60603)", "assay": "NF-κB-dependent luciferase reporter assay, 293 vs 293.hTLR2 cells", "format": "cell-based", "settings": "synthetic peptide on parental 293 and 293.hTLR2 cells, four to five hours at 37° C.", "experimental": "NF-κB-dependent luciferase reporter assay: Parental 293 cells and 293.hTLR2 cells (see Example 1, above) were incubated with an aliquot of test peptide four to five hours at 37° C. NF-κB-dependent luciferase activity was measured using the Steady-Glo Luciferase Assay System by Promega (E2510), following the manufacturer's instructions. Luminescence was measured on a microplate luminometer (FARCyte, Amersham) and expressed as relative luminescence units (RLU) after subtracting the background reading obtained by exposing cells to the DMEM medium alone.\nThe biological activity of the TLR2-binding peptides isolated by the screening method was confirmed using the isolated peptides in an NF-κB-dependent reporter gene assay. For this assay, a synthetic monomer of the DPDSG motif (SEQ ID NO: 5), or a concatemerized copy (DPDSG)5, was incubated on parental HEK293 cells containing an NF-κB-dependent luciferase reporter construct (293) and on TLR2-overexpressing HEK293 cells containing an NF-κB-dependent luciferase reporter construct (293.hTLR2, see Example 1, above). Luciferase activity was then measured. […] Thus, the TLR2-binding peptides identified by the screening assay are functional peptide TLR2 ligands."}, "[2]": {"target": "T1, TLR2", "parameters": "host or cells: monocytes and epithelial cells", "settings": "cited from earlier work"}, "[3]": {"target": "human TLR2 (293.hTLR2 cells) (Homo sapiens, UniProt O60603)", "sequence (O60603 21-784)": "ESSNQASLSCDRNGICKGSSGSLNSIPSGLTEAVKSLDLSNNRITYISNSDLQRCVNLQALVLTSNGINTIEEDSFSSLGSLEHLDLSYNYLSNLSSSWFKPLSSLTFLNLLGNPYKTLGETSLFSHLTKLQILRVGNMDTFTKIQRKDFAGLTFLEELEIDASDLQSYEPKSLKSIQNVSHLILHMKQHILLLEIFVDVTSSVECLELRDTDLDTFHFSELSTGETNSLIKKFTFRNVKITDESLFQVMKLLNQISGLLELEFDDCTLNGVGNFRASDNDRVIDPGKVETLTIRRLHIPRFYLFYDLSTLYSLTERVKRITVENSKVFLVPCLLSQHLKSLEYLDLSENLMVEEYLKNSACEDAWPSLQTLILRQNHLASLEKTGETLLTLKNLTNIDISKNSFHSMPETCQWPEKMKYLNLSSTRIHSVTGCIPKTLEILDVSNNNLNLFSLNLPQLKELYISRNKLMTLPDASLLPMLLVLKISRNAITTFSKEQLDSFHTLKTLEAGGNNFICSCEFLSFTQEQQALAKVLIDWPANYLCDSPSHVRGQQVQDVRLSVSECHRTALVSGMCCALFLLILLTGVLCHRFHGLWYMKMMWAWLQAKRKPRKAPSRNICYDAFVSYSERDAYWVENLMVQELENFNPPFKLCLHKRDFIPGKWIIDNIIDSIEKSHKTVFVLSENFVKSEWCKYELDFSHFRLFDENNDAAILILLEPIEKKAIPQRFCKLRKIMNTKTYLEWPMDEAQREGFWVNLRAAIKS", "assay": "Biopanning of pentameric random peptide phage display library, sequencing of enriched clones", "format": "binding", "settings": "percentage of all clones sequenced (n = 109) having given peptide sequence; after 4 rounds of biopanning, TLRlo parental HEK293, TLRhi 293.hTLR2; peptides with identity to known microbial proteins", "experimental": "Screening of phage display libraries by biopanning: Phage display libraries are screened for peptide TLR ligands according to the following procedure. The phage display library is incubated on an in vitro cultured monolayer of cells that express minimal amounts of the TLR of interest (TLR^lo) in order to reduce non-specific binding, and then transferred to an in vitro suspension culture of cells expressing the relevant TLR (TLR^hi) to capture phage with binding specificity for the target TLR. After several washes with PBS to remove phage remaining unbound to the TLR^hi cells, TLR^hi cell-bound phages are harvested by centrifugation. The TLR^hi cells with bound phage are incubated with E. coli (strain BLT5615) in order to amplify the phage. This process is repeated three or more times to yield a phage population enriched for high affinity binding to the target TLR.\nIn each round of biopanning, the harvested phage that are bound to TLR^hi cells can be titred prior to amplification, amplified, and then titred again prior to initiation of the next cycle of biopanning. In this way, it is possible to determine the percent (%) of input phage in each cycle that are ultimately harvested from the TLR^hi cells. This calculation provides a round-by-round measure of enrichment within the phage display library for phage that display TLR-binding peptides.\nConstruction of random peptide libraries (RPL): A pentameric random peptide phage display library of T7SELECT phage was constructed essentially as described in Example 2. A pair of phosphorylated oligonucleotides with the sequence NNBNNBNNBNNBNNB (where N=A/G/C/T, B=G/C/T) flanked at the 5′ and 3′ ends by EcoRI and HindIII sites, respectively, was synthesized. Equimolar amounts of the oligonucleotides were annealed by heating for 5 min at 90° C. with gradual cooling to 25° C. The double stranded DNA was ligated to T7Select 10-3 bacteriophage vector (Novagen) that had been previously digested with EcoRI and HindIII. The ligation reactions were packaged in vitro and titred using the host E. coli strain […] that was grown in M9TB (Novagen), generating 2.5×10^7 clones, representing about 75% coverage of the library. The recombinant phage were subjected to several rounds of amplification to generate a total library of 1.35×10^12 phage, ensuring representation in excess of 5×10^4 fold for each clone in the library.\nSequencing of phage inserts: Individual phage clones from the enriched pool are isolated via plaque formation in E. coli. The DNA inserts of individual phage are amplified in PCR using the commercially available primers T7SelectUP (5′-GGAGCTGTCGTATTCCAGTC-3′; SEQ ID NO: 37; Novagen, catalog #70005) and T7SelectDOWN (5′-AACCCCTCAAGACCCGTTTA-3′; SEQ ID NO: 38; Novagen, catalog #70006). The PCR product DNA is purified using the QIAquick 96 PCR Purification Kit (Qiagen) and subjected to DNA sequencing using T7SelectUP and T7SelectDOWN primers.\nWe constructed a pentameric random peptide phage display library in T7 phage. This phage library was then screened by biopanning as described in Example 3. For this screen, the TLR^lo cells were parental HEK293 (TLR2^−) cells, and the TLR^hi cells were HEK293 cells ectopically expressing human TLR2 (293.hTLR2, see Example 1, above). Phage bound to 293.hTLR2 cells were harvested, titred, and amplified prior to initiation of the each cycle of panning. In this way, it was possible to determine the % of input phage in each cycle that was ultimately harvested from the TLR2^hi cells.\nAfter 4 rounds of biopanning, individual phage clones from the enriched pool were isolated via plaque formation in E. coli. […] phage clones were randomly picked for sequencing. Of the 109 individual clones examined the motif DPDSG was predominant (see Tables 6 and 7). […]"}, "[4]": {"target": "T2, human TLR5 (human, UniProt O60602 21-858)", "T2 construct": "Expressed ectopically on HEK293 cells from the bought Invivogen plasmid pUNO-hTLR5 (293.hTLR5); also called hTLR5", "T2 sequence (O60602 21-858 limits assumed)": "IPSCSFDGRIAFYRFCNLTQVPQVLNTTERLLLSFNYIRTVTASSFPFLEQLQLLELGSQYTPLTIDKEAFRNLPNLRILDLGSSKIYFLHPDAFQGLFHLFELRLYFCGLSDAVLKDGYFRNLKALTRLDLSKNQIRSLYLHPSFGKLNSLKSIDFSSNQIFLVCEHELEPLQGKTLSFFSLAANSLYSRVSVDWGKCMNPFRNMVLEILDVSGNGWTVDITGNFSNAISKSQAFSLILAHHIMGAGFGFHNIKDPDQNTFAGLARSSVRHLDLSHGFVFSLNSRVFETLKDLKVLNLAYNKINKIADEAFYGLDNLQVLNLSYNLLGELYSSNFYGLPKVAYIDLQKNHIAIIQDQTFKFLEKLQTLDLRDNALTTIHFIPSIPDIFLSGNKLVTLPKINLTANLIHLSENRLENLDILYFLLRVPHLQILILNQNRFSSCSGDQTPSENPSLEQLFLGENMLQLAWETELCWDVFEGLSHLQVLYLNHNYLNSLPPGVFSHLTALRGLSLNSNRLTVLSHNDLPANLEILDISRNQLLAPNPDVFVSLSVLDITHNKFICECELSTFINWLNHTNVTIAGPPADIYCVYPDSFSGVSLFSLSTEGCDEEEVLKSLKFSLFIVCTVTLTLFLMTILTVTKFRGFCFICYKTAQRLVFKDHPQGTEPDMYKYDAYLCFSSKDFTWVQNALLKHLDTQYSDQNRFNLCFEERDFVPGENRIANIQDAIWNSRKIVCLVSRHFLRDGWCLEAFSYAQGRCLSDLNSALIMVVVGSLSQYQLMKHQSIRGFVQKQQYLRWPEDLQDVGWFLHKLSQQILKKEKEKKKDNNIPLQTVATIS", "assay": "fliC-phage incubated on 293 and 293.hTLR5 cells; NF-κB luciferase read-out"}}, "data": [{"molecule": "(DPDSG)5 (DPDSGDPDSGDPDSGDPDSGDPDSG) [concatemerized copy of the DPDSG motif, solid phase synthesis]", "values": [{"measurement": "NF-κB-dependent luciferase reporter gene expression", "setting": "[1]", "value": "activated luciferase reporter gene expression in a TLR2-dependent manner"}]}, {"molecule": "ALTTE (PEPTIDEALTTE) [pentapeptide derived from fimbrial subunit protein, known TLR2 ligand]", "values": [{"measurement": "activation of monocytes and epithelial cells via TLR2 signaling", "setting": "[2]; Ogawa et al. 1995, 2002, Asai et al. 2001", "value": "activate monocytes and epithelial cells via TLR2 signaling"}]}, {"molecule": "DPDSG [peptide TLR2 ligand; also made as synthetic monomer]", "values": [{"measurement": "% Abundance", "setting": "[3]", "value": 46.8, "unit": "%"}, {"measurement": "NF-κB-dependent luciferase reporter gene expression", "setting": "[1]", "value": "activated luciferase reporter gene expression in a TLR2-dependent manner"}]}, {"molecule": "GLTTE (PEPTIDEGLTTE) [A to G substitution variant of ALTTE]", "values": [{"measurement": "antagonism of the wild-type peptide and full-length fimbrial protein", "setting": "[2]; single amino acid substitution (A to G), Ogawa et al. 1995", "value": "antagonize the activity of the wild-type peptide and full-length protein"}]}, {"molecule": "B1", "values": [{"measurement": "binding result", "setting": "[4]", "value": "binds"}]}]}
